Reference: paper PMC5916898, “Global profiling of protein–DNA and protein–nucleosome binding affinities using quantitative mass spectrometry”

Tests used:
Experiment in all cases: pulldown; 150 mM NaCl, 50 mM Tris pH 8, 0.25% NP-40, 1 mM TCEP; 4 C, 2 h; 100 ug HeLa nuclear lysate
Conditions in all cases: protein: extract; label: 5' biotin (strand 1)
ZNF512B = target: T1, ZNF512B (Homo sapiens, UniProt Q96KM6)
T1 sequence: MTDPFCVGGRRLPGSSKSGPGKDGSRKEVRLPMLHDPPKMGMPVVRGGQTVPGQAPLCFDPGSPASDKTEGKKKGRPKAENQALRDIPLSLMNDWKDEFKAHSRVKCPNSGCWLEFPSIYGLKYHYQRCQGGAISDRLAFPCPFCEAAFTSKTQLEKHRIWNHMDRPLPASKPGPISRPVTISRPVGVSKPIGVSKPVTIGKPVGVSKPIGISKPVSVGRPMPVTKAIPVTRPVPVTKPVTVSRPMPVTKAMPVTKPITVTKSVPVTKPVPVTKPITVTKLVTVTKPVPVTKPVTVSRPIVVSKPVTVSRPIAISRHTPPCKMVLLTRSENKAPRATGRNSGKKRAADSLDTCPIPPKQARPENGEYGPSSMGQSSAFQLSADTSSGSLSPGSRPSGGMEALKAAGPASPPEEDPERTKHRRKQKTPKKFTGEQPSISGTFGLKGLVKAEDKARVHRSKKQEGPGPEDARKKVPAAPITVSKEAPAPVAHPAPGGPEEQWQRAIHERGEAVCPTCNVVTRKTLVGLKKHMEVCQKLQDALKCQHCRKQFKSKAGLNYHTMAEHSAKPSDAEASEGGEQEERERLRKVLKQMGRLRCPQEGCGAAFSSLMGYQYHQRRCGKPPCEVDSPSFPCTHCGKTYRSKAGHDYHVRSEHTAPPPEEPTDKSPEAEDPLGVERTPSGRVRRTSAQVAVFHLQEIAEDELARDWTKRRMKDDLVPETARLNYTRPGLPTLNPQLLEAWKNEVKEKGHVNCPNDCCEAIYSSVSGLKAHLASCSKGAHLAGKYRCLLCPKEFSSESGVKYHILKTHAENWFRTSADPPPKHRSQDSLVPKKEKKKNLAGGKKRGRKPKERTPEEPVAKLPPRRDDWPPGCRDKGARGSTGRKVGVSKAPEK

ZNF787 = ZNF787 (Homo sapiens, UniProt Q6DD87)
ZNF787, sequence (Q6DD87 whole entry): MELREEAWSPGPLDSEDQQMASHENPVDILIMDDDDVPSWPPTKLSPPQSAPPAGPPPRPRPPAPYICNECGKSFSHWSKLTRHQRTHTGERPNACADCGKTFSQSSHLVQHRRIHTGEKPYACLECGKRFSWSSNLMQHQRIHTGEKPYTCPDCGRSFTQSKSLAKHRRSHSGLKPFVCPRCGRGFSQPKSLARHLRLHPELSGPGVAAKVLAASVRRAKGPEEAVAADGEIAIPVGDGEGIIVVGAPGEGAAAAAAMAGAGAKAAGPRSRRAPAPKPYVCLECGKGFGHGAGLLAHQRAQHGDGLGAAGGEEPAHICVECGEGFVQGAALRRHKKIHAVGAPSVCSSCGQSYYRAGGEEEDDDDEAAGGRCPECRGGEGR

ESRRA = target: T2, ESRRA (Homo sapiens, UniProt P11474)
T2 sequence: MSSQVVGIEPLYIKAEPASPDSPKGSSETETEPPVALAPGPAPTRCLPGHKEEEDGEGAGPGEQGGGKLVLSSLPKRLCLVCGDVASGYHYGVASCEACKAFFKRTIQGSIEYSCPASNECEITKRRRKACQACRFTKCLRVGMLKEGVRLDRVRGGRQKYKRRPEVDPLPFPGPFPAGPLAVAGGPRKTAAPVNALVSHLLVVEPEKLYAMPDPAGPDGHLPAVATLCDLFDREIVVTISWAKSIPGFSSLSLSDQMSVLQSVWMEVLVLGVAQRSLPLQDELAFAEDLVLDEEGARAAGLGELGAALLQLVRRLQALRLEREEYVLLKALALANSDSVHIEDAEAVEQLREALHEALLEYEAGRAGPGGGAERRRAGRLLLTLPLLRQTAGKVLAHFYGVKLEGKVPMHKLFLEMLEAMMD

ZFHX3 = ZFHX3 (Homo sapiens, UniProt Q15911)
NFATC3 = target: T3, NFATC3 (Homo sapiens, UniProt Q12968)
T3 sequence: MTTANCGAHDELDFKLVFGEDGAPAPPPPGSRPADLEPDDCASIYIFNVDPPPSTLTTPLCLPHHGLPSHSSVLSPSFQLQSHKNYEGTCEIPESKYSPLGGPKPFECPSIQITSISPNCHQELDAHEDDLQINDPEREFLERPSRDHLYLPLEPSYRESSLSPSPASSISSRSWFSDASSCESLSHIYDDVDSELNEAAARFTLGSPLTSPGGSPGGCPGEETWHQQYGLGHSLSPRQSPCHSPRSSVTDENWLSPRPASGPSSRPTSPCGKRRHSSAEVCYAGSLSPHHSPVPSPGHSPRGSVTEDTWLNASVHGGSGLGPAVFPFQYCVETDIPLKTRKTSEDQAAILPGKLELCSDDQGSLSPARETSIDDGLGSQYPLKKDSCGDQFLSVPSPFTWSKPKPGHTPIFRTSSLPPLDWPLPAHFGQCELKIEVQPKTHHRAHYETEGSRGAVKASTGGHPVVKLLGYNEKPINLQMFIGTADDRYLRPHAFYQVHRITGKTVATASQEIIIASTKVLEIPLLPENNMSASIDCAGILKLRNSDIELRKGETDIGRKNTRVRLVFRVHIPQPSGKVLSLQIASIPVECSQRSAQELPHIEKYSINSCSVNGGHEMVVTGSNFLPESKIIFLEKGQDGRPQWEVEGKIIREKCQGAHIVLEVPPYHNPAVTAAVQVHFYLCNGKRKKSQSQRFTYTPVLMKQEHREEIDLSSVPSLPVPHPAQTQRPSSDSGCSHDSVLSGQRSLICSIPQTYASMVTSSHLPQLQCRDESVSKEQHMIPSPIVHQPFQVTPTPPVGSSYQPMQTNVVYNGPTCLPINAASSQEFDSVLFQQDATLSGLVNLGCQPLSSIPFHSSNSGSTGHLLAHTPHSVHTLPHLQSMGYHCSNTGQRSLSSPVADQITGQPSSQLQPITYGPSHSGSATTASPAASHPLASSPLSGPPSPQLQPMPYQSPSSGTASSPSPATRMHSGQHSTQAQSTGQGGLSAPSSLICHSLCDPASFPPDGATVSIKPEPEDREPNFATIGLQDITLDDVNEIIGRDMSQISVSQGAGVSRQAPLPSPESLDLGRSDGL

NFAT5 = NFAT5 (Homo sapiens, UniProt O94916)
NFAT5, sequence (O94916 whole entry): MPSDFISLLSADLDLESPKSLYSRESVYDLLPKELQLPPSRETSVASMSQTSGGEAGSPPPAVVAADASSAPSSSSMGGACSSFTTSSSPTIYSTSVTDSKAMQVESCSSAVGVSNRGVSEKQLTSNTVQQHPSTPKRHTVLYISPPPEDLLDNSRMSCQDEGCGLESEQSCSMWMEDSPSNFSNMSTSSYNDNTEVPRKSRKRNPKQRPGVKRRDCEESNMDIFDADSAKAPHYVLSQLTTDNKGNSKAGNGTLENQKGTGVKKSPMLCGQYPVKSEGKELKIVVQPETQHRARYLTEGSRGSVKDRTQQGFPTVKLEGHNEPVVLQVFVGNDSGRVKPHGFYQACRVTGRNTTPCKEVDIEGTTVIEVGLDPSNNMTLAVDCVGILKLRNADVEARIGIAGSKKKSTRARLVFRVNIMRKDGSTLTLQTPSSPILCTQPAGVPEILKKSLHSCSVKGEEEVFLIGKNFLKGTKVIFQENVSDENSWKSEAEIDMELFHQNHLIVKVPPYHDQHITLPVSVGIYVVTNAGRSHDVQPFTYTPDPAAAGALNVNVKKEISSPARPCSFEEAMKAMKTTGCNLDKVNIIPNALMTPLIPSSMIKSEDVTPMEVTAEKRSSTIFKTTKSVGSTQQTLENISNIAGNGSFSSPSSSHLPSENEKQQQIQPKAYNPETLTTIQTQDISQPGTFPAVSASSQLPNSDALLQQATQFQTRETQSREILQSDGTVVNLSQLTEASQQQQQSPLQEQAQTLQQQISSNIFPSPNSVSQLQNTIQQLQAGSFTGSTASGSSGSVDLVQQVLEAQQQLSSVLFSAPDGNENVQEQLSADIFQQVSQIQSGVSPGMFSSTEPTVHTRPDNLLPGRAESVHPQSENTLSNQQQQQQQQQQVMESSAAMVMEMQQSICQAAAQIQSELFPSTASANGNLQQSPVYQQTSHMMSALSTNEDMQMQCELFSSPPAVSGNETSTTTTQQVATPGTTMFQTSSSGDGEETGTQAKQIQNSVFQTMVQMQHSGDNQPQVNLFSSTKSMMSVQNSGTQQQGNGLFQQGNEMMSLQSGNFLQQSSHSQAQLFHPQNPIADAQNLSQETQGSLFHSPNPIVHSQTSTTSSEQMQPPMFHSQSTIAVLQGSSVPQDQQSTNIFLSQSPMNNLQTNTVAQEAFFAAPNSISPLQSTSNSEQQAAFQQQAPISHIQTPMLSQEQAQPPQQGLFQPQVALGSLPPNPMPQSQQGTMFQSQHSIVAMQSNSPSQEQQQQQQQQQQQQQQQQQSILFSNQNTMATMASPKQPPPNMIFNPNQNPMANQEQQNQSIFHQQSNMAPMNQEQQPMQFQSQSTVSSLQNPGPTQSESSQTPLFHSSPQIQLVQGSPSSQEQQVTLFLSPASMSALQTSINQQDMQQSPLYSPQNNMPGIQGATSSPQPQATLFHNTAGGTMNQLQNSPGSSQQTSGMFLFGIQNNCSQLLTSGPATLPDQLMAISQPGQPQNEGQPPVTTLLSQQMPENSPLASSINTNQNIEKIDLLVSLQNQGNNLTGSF

B1: CTCF (dsDNA)
DNA 1: TCAGAGTGGCGGCCAGCAGGGGGCGCCCTTGCCAGA
DNA 2: TCTGGCAAGGGCGCCCCCTGCTGGCCGCCACTCTGA
For B1, the “apparent K (half saturation)” value (ZNF512B) was 353 nM, the “apparent K (half saturation)” value (ZNF787) was 370 nM and the “apparent K (half saturation)” value (ESRRA) was 319 nM.

B2: TATA-box (dsDNA)
DNA 1: GCGGCGCTCTATATAAGTGGGCAGTG
DNA 2: CACTGCCCACTTATATAGAGCGCCGC
For B2, the “apparent K (half saturation)” value (ZFHX3) was 289 nM.

B3: TEAD (dsDNA)
DNA 1: TCGGGACCCAGGCCTGGAATGTTTCCACC
DNA 2: GGTGGAAACATTCCAGGCCTGGGTCCCGA
For B3, the “apparent K (half saturation)” value (NFATC3) was 46.7 nM and the “apparent K (half saturation)” value (NFAT5) was 94.6 nM.
